Test results reported in publication PMC10877727, “Effect of TraN key residues involved in DNA binding on pIP501 transfer rates in Enterococcus faecalis”.

Tests used:
Settings in all cases: protein: recombinant; tags: N-terminal 7xHis (pQTEV); blunt
[1] = biological target: T1, TraN_G100A-K101A (Enterococcus faecalis plasmid pIP501, UniProt Q7BVV5 1-122, G100A;K101A); experiment: MST; no sigmoidal fit possible up to 12.8 uM DNA; extremely low affinity; MST in PBS-T (pH and temperature not stated); 50 nM RED-tris-NTA labelled His-protein, dsDNA 0.781 nM to 12.8 uM; Monolith NT.115, 60% LED and MST power
[2] = biological target: T2, TraN_H82A-R86A (Enterococcus faecalis plasmid pIP501, UniProt Q7BVV5 1-122, H82A;R86A); experiment: as above
[3] = biological target: T1, TraN_G100A-K101A; experiment: MST; MST in PBS-T (pH and temperature not stated); 50 nM RED-tris-NTA labelled His-protein, dsDNA 0.781 nM to 12.8 uM; Monolith NT.115, 60% LED and MST power
[4] = biological target: TraN_R23A-N24A-Q28A (Enterococcus faecalis plasmid pIP501, UniProt Q7BVV5 1-122, R23A;N24A;Q28A); experiment: as above
[5] = biological target: TraN_G47A-G48A (Enterococcus faecalis plasmid pIP501, UniProt Q7BVV5 1-122, G47A;G48A); experiment: as above
[6] = biological target: T2, TraN_H82A-R86A; experiment: as above
[7] = biological target: TraN (Enterococcus faecalis plasmid pIP501, UniProt Q7BVV5 1-122); experiment: as above

Binder	binding result [1]	binding result [2]	Kd [3] [nM]	Kd [4] [nM]	Kd [5] [nM]	Kd [6] [nM]	Kd [7] [nM]
random DNA 34-mer (dsDNA) DNA 1: AGGGCGCACTTATACGCAGTAACTTCGTTACTTC DNA 2: GAAGTAACGAAGTTACTGCGTATAAGTGCGCCCT	no binding	no binding					
oBS 34-mer (original TraN binding site) (dsDNA) DNA 1: CGGAAATGTCAGGTTAAACATATTTACTTTTATA DNA 2: TATAAAAGTAAATATGTTTAACCTGACATTTCCG			406 ± 45.5	154 ± 19.5	48.8 ± 9.75	425 ± 102	11.7 ± 2.65
